Measured values: patent US8653023

System: protein phosphatase 2A (PP2A), endogenous, in N27 cell lysate

Question: With recombinant pure PKCδ as the substance, how does the “32P-kinase assay: phosphorylation of immunoprecipitated PP2A” value read?
Answer: PP2A immunoprecipitated from N27 cells was effectively phosphorylated by PKCδ immunoprecipitates as well as by recombinant pure PKCδ
